We go through 2 substances from article PMC9926306.

The target in the test is ABCA1 (mouse (endogenous in J774)) (UniProt P41233).
Chain of UniProt P41233 (P41233 whole entry): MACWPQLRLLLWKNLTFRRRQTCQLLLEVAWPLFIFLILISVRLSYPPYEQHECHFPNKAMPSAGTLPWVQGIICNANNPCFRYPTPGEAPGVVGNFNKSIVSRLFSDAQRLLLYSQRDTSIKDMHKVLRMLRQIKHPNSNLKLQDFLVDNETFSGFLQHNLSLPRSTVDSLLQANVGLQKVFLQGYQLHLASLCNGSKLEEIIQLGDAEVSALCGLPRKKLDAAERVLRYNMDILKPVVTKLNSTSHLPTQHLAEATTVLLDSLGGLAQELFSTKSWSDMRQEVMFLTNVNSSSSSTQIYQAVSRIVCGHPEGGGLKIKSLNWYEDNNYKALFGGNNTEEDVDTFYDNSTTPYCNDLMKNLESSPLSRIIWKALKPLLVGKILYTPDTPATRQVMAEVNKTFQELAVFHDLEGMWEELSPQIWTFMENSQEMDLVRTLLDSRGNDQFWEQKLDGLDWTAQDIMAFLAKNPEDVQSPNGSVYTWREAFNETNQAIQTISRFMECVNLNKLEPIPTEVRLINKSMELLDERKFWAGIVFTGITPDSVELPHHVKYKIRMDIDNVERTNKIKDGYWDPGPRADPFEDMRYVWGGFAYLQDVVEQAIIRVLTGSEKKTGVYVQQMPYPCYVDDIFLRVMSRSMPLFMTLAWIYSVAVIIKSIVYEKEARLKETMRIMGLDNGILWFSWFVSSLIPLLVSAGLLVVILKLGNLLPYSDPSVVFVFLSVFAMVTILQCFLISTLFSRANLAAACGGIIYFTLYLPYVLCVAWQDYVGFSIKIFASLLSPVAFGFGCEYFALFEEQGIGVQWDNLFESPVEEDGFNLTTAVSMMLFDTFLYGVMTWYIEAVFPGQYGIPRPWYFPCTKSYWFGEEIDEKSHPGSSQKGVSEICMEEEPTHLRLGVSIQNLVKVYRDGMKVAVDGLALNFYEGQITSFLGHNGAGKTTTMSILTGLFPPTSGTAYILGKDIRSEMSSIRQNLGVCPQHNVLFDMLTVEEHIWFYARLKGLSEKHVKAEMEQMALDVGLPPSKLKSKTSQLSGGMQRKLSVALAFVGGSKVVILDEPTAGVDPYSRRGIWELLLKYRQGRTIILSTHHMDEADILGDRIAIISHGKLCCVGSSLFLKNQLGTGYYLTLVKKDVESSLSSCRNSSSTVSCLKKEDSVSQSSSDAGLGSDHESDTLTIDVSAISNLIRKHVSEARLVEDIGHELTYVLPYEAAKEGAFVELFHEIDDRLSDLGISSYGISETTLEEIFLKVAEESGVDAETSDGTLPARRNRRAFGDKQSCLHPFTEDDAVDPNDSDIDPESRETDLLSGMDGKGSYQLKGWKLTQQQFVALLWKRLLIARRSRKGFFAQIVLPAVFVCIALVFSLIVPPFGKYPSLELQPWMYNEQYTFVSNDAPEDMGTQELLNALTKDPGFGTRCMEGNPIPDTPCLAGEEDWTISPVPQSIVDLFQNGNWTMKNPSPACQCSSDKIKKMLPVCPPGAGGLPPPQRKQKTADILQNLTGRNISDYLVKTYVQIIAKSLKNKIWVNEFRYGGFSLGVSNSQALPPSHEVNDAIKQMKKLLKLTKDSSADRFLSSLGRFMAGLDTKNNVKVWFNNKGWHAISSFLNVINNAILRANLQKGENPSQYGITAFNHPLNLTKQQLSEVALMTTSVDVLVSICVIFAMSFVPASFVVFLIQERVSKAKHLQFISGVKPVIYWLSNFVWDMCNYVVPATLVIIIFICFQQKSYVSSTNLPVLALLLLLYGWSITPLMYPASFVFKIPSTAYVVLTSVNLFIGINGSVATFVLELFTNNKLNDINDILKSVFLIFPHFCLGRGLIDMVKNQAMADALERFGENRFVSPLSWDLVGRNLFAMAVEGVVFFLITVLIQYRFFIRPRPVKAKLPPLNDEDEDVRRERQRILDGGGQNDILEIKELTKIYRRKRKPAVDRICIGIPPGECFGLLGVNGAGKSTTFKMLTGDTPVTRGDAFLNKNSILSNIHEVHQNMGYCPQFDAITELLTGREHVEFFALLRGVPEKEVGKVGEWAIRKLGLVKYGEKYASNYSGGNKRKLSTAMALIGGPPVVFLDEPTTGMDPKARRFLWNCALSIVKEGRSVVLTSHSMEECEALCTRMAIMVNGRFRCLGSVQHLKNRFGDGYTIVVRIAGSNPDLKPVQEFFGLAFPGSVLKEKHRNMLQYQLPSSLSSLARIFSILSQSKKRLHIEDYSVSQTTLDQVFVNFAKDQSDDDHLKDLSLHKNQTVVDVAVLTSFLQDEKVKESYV

In the case of “WT apoA-I (from UniProt P02647 19-267) (natural protein)”, the percent BODIPY-cholesterol efflux from J774 cells treated with cAMP (ABCA1 upregulated), apoA-I 10 ug/ml, 6 and 24 h; value after 24 h was determined as 28.7%.

apoA-I[K107del] (natural protein) came in with a percent BODIPY-cholesterol efflux from J774 cells treated with cAMP (ABCA1 upregulated), apoA-I 10 ug/ml, 6 and 24 h; value after 24 h of 27.9%.
